Data reported in the Human Domainome abundance scans (Beltran et al. 2025).
± gives the uncertainty stated by the source.

B1: Homeobox protein SIX3, residues 212 to 262; numbered along this chain, O95343 (parent)
chain: CFKERTRSLLREWYLQDPYPNPSKKRELAQATGLTPTQVGNWFKNRRQRDR

Variants of: B1
Assay: abundance fitness (aPCA) (normalised: wild type 0, dead -1); higher = more abundant; growth selection in yeast, the domain comes from the species named
Settings: Homo sapiens

Variant	abundance fitness
CFKERTRSLLREWYLQDPYPNPSKKRELAQATGATPTQVGNWFKNRRQRDR	-0.72 ± 0.097
CFKERTRSLLREWYLQDPYPNPSKKRELAQATGCTPTQVGNWFKNRRQRDR	-0.834 ± 0.093
CFKERTRSLLREWYLQDPYPNPSKKRELAQATGDTPTQVGNWFKNRRQRDR	-0.798 ± 0.2
CFKERTRSLLREWYLQDPYPNPSKKRELAQATGFTPTQVGNWFKNRRQRDR	-0.823 ± 0.13
CFKERTRSLLREWYLQDPYPNPSKKRELAQATGGTPTQVGNWFKNRRQRDR	-0.72 ± 0.086
CFKERTRSLLREWYLQDPYPNPSKKRELAQATGHTPTQVGNWFKNRRQRDR	-0.502 ± 0.33
CFKERTRSLLREWYLQDPYPNPSKKRELAQATGITPTQVGNWFKNRRQRDR	-0.445 ± 0.082
CFKERTRSLLREWYLQDPYPNPSKKRELAQATGKTPTQVGNWFKNRRQRDR	-0.56 ± 0.089
CFKERTRSLLREWYLQDPYPNPSKKRELAQATGMTPTQVGNWFKNRRQRDR	-0.186 ± 0.093
CFKERTRSLLREWYLQDPYPNPSKKRELAQATGNTPTQVGNWFKNRRQRDR	-0.918 ± 0.18
CFKERTRSLLREWYLQDPYPNPSKKRELAQATGPTPTQVGNWFKNRRQRDR	-0.75 ± 0.21
CFKERTRSLLREWYLQDPYPNPSKKRELAQATGQTPTQVGNWFKNRRQRDR	-0.634 ± 0.15
CFKERTRSLLREWYLQDPYPNPSKKRELAQATGRTPTQVGNWFKNRRQRDR	-0.847 ± 0.065
CFKERTRSLLREWYLQDPYPNPSKKRELAQATGSTPTQVGNWFKNRRQRDR	-0.623 ± 0.089
CFKERTRSLLREWYLQDPYPNPSKKRELAQATGTTPTQVGNWFKNRRQRDR	-0.73 ± 0.21
CFKERTRSLLREWYLQDPYPNPSKKRELAQATGVTPTQVGNWFKNRRQRDR	-0.881 ± 0.11
CFKERTRSLLREWYLQDPYPNPSKKRELAQATGWTPTQVGNWFKNRRQRDR	-0.606 ± 0.097
CFKERTRSLLREWYLQDPYPNPSKKRELAQATGYTPTQVGNWFKNRRQRDR	-0.778 ± 0.14
CFKERTRSLLREWYLQDPYPNPSKKRELAQATGLAPTQVGNWFKNRRQRDR	-0.861 ± 0.13
CFKERTRSLLREWYLQDPYPNPSKKRELAQATGLCPTQVGNWFKNRRQRDR	-0.645 ± 0.12
CFKERTRSLLREWYLQDPYPNPSKKRELAQATGLDPTQVGNWFKNRRQRDR	-0.697 ± 0.096
CFKERTRSLLREWYLQDPYPNPSKKRELAQATGLEPTQVGNWFKNRRQRDR	-0.809 ± 0.16
CFKERTRSLLREWYLQDPYPNPSKKRELAQATGLFPTQVGNWFKNRRQRDR	-0.77 ± 0.37
CFKERTRSLLREWYLQDPYPNPSKKRELAQATGLGPTQVGNWFKNRRQRDR	-0.827 ± 0.063
CFKERTRSLLREWYLQDPYPNPSKKRELAQATGLHPTQVGNWFKNRRQRDR	-0.763 ± 0.41
CFKERTRSLLREWYLQDPYPNPSKKRELAQATGLKPTQVGNWFKNRRQRDR	-0.726 ± 0.14

Variant	abundance fitness
CFKERTRSLLREWYLQDPYPNPSKKRELAQATGLLPTQVGNWFKNRRQRDR	-0.778 ± 0.069
CFKERTRSLLREWYLQDPYPNPSKKRELAQATGLMPTQVGNWFKNRRQRDR	-0.715 ± 0.067
CFKERTRSLLREWYLQDPYPNPSKKRELAQATGLNPTQVGNWFKNRRQRDR	-0.259 ± 0.13
CFKERTRSLLREWYLQDPYPNPSKKRELAQATGLPPTQVGNWFKNRRQRDR	-0.894 ± 0.15
CFKERTRSLLREWYLQDPYPNPSKKRELAQATGLQPTQVGNWFKNRRQRDR	-0.252 ± 0.21
CFKERTRSLLREWYLQDPYPNPSKKRELAQATGLRPTQVGNWFKNRRQRDR	-0.704 ± 0.045
CFKERTRSLLREWYLQDPYPNPSKKRELAQATGLSPTQVGNWFKNRRQRDR	-0.044 ± 0.055
CFKERTRSLLREWYLQDPYPNPSKKRELAQATGLVPTQVGNWFKNRRQRDR	-0.842 ± 0.05
CFKERTRSLLREWYLQDPYPNPSKKRELAQATGLWPTQVGNWFKNRRQRDR	-0.848 ± 0.17
CFKERTRSLLREWYLQDPYPNPSKKRELAQATGLYPTQVGNWFKNRRQRDR	-0.826 ± 0.12
CFKERTRSLLREWYLQDPYPNPSKKRELAQATGLTATQVGNWFKNRRQRDR	-0.226 ± 0.09
CFKERTRSLLREWYLQDPYPNPSKKRELAQATGLTCTQVGNWFKNRRQRDR	-0.241 ± 0.051
CFKERTRSLLREWYLQDPYPNPSKKRELAQATGLTDTQVGNWFKNRRQRDR	-0.638 ± 0.19
CFKERTRSLLREWYLQDPYPNPSKKRELAQATGLTETQVGNWFKNRRQRDR	0.066 ± 0.046
CFKERTRSLLREWYLQDPYPNPSKKRELAQATGLTFTQVGNWFKNRRQRDR	0.184 ± 0.075
CFKERTRSLLREWYLQDPYPNPSKKRELAQATGLTGTQVGNWFKNRRQRDR	-0.596 ± 0.043
CFKERTRSLLREWYLQDPYPNPSKKRELAQATGLTHTQVGNWFKNRRQRDR	-0.305 ± 0.13
CFKERTRSLLREWYLQDPYPNPSKKRELAQATGLTITQVGNWFKNRRQRDR	-0.096 ± 0.11
CFKERTRSLLREWYLQDPYPNPSKKRELAQATGLTKTQVGNWFKNRRQRDR	-0.048 ± 0.074
CFKERTRSLLREWYLQDPYPNPSKKRELAQATGLTLTQVGNWFKNRRQRDR	-0.087 ± 0.062
CFKERTRSLLREWYLQDPYPNPSKKRELAQATGLTMTQVGNWFKNRRQRDR	0.03 ± 0.074
CFKERTRSLLREWYLQDPYPNPSKKRELAQATGLTNTQVGNWFKNRRQRDR	-0.815 ± 0.34
CFKERTRSLLREWYLQDPYPNPSKKRELAQATGLTQTQVGNWFKNRRQRDR	-0.235 ± 0.12
CFKERTRSLLREWYLQDPYPNPSKKRELAQATGLTRTQVGNWFKNRRQRDR	-0.307 ± 0.049
CFKERTRSLLREWYLQDPYPNPSKKRELAQATGLTSTQVGNWFKNRRQRDR	-0.274 ± 0.07
